Values of other authors as cited in patent US20240366723A1, “COMBINATION THERAPY FOR THE TREATMENT OF ENTERIC NEUROPATHIES” (TRANSFERT PLUS, LIMITED PARTNERSHIP, priority 2021, published 2024).

B1: BMP4: Bone morphogenetic protein 4 (protein, UniProt P12644 293-408, looked up)
Bone morphogenetic protein 4: SPKHHSQRARKKNKNCRRHSLYVDFSDVGWNDWIVAPPGYQAFYCHGDCPFPLADHLNSTNHAIVQTLVNSVNSSIPKACCVPTELSAISMLYLDEYDKVVLKNYQEMVVEGCGCR
B2: MANF: Mesencephalic Astrocyte Derived Neurotrophic Factor (protein, UniProt P55145 25-182, looked up)
Mesencephalic …: LRPGDCEVCISYLGRFYQDLKDRDVTFSPATIENELIKFCREARGKENRLCYYIGATDDAATKIINEVSKPLAHHIPVEKICEKLKKKDSQICELKYDKQIDLSTVDLKKLRVKELKKILDDWGETCKGCAEKSDYIRKINELMPKYAPKAASARTDL

Settings: literature reports, various models

| Molecule | Reported neurotrophic activity |
| --- | --- |
| B1 | BMP signaling is necessary for neural crest cell |
| B2 | MANF has neuroregenerative activity via differentiation |
